The supplement of paper PMC7877785
± gives the uncertainty stated by the source.

Assay: self-splicing fitness, log relative to wild type (ln ratio); higher = more splicing; Tetrahymena group I intron in knt gene, E. coli kanamycin selection, DiMSum; sequences stand for … in CUCUCU…GGAGGGAAAAGUUAUCAGGCAUGCACCUGGUAGCUAGUCUUUAAACCAAUAGAUUGCAUCGGUUUAAAAGGCAAGACCGUCAAAUUGCGGGAAAGGGGUCAACAGCCGUUCAGUACCAAGUCUCAGGGGAAACUUUGAGAUGGCCUUGCAAAGGGUAUGGUAAUAAGCUGACGGACAUGGUCCUAACCACGCAGCCAAGUCCUAAGUCAACAGAUCUUCUGUUGAUAUGGAUGCAGUUCACAGACUAAAUGUCGGUCGGGGAAGAUGUAUUCUUCUCAUAAGAUAUAGUCGGACCUCUCCUUAAUGGGAGCUAGCGGAUGAAGUGAUGCAACACUGGAGCCGCUGGGAACUAAUUUGUAUGCGAAAGUAUAUUGAUUAGUUUUGGAGUACUCGUGGUCG
Outline: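 DiMSum derived fitness as the error-weighted combination of fold changes across replicates, kanamycin versus no kanamycin, normalised to wild type. E. coli BL21(DE3) held the library, which randomised all eight P1ex-region intron nucleotides within the knt kanamycin-resistance gene on pET-22b(+). Six replicate transformations grew overnight at 37°C or 30°C on LB agar with or without 25 μg/mL kanamycin, also containing 100 μg/mL carbenicillin, 50 μM IPTG and 0.2% rhamnose, and pooled colonies were amplicon-sequenced on an Illumina HiSeq 2500.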

Row | Sequence | self-splicing fitness (ln) (30 °C) | self-splicing fitness (ln) (37 °C)
1 | CGCGAGCAAUAUUACGGGAG | -3.66 ± 0.19 | -2.91 ± 0.22
2 | CGCGAGCAAUAUUACGGGGA | -1.94 ± 0.28 | -2.41 ± 0.29
3 | CGCGAGCAAUAUUACGGGGU | -4.28 ± 0.23 | -2.95 ± 0.22
4 | CGCGAGCAAUAUUACGGGUC | -3.27 ± 0.2 | -2.38 ± 0.31
5 | CGCGAGCAAUAUUACGGUCC | -3.29 ± 0.4 | -2.12 ± 0.44
6 | CGCGAGCAAUAUUACGGUUG | -1.73 ± 0.068 | -1.76 ± 0.12
7 | CGCGAGCAAUAUUACGUAAC | -2.76 ± 0.41 | -1.76 ± 0.27
8 | CGCGAGCAAUAUUACGUAGA | -3.09 ± 0.15 | -2.93 ± 0.23
9 | CGCGAGCAAUAUUACGUCCA |  | -1.96 ± 0.32
10 | CGCGAGCAAUAUUACGUUCC | -3.49 ± 0.32 | 
11 | CGCUAGCAAUAUUACGACGA | -1.46 ± 0.15 | 0.422 ± 0.16
12 | CGCUAGCAAUAUUACGACGU | -1.86 ± 0.1 | -0.355 ± 0.12
13 | CGCUAGCAAUAUUACGAGGA | -1.5 ± 0.18 | -2.97 ± 0.29
14 | CGCUAGCAAUAUUACGAUAG | -1.9 ± 0.065 | -0.433 ± 0.085
15 | CGCUAGCAAUAUUACGAUCG | -1.17 ± 0.12 | -0.644 ± 0.14
16 | CGCUAGCAAUAUUACGAUUG | -1.18 ± 0.1 | 0.0898 ± 0.13
17 | CGCUAGCAAUAUUACGCACC | -1.98 ± 0.18 | -1 ± 0.23
18 | CGCUAGCAAUAUUACGCACU | -1.27 ± 0.089 | -0.65 ± 0.11
19 | CGCUAGCAAUAUUACGCGUU | -1.99 ± 0.15 | -2.51 ± 0.29
20 | CGCUAGCAAUAUUACGCUCA | -2.4 ± 0.18 | -0.522 ± 0.11
21 | CGCUAGCAAUAUUACGCUGU |  | -2.3 ± 0.19
22 | CGCUAGCAAUAUUACGGUAG | -2.52 ± 0.11 | -2 ± 0.13
23 | CGCUAGCAAUAUUACGUACG | -1.66 ± 0.13 | -1.07 ± 0.13
24 | CGCUAGCAAUAUUACGUAGA | -2.69 ± 0.14 | -1.54 ± 0.19
25 | CGCUAGCAAUAUUACGUGCC | -1.58 ± 0.11 | -0.959 ± 0.15
26 | CGCUAGCAAUAUUACGUGUA | -3.54 ± 0.27 | -1.53 ± 0.13

Row | Sequence | self-splicing fitness (ln) (30 °C) | self-splicing fitness (ln) (37 °C)
27 | CGCUAGCAAUAUUACGUUGG | -4 ± 0.23 | -2.24 ± 0.19
28 | CGCUAGCAAUAUUACGUUUC | -2.78 ± 0.17 | -2.23 ± 0.22
29 | CGGAAGCAAUAUUACGACAA | -2.42 ± 0.31 | -2.2 ± 0.33
30 | CGGAAGCAAUAUUACGAUAC | -2.26 ± 0.18 | -2.22 ± 0.21
31 | CGGAAGCAAUAUUACGAUAG | -1.11 ± 0.082 | 0.166 ± 0.1
32 | CGGAAGCAAUAUUACGCAAU | -3 ± 0.26 | -2.69 ± 0.26
33 | CGGAAGCAAUAUUACGCCCG | -2.86 ± 0.36 | 
34 | CGGAAGCAAUAUUACGCCUA | -1.72 ± 0.21 | -0.963 ± 0.18
35 | CGGAAGCAAUAUUACGCCUG | -1 ± 0.098 | -0.724 ± 0.12
36 | CGGAAGCAAUAUUACGGCGU | -1.96 ± 0.16 | -1.04 ± 0.22
37 | CGGAAGCAAUAUUACGGGAU | -3.67 ± 0.42 | -2.48 ± 0.25
38 | CGGAAGCAAUAUUACGGGGU | -2.39 ± 0.27 | -3.41 ± 0.43
39 | CGGAAGCAAUAUUACGGGUC | -3.78 ± 0.19 | -2.59 ± 0.21
40 | CGGAAGCAAUAUUACGGUAA | -3.11 ± 0.23 | -2.23 ± 0.24
41 | CGGAAGCAAUAUUACGGUAC | -3.17 ± 0.27 | -1.93 ± 0.25
42 | CGGAAGCAAUAUUACGUAUU | -3.43 ± 0.28 | -3.37 ± 0.37
43 | CGGAAGCAAUAUUACGUCUC | -4.07 ± 0.39 | -2.3 ± 0.19
44 | CGGAAGCAAUAUUACGUCUU | -1.67 ± 0.083 | -0.53 ± 0.092
45 | CGGAAGCAAUAUUACGUGUC | -3.44 ± 0.28 | -1.94 ± 0.31
46 | CGGAAGCAAUAUUACGUUAU | -3.02 ± 0.21 | -2.3 ± 0.28
47 | CGGCAGCAAUAUUACGACAA | -1.99 ± 0.1 | -2.28 ± 0.18
48 | CGGCAGCAAUAUUACGACGA | -1 ± 0.11 | -1.41 ± 0.14
49 | CGGCAGCAAUAUUACGACGU | -1.45 ± 0.066 | -0.471 ± 0.071
50 | CGGCAGCAAUAUUACGAUAA | -2.07 ± 0.21 | -1.96 ± 0.34
51 | CGGCAGCAAUAUUACGAUCU | -0.274 ± 0.084 | 0.148 ± 0.11
52 | CGGCAGCAAUAUUACGCACC | -2.89 ± 0.17 | -2.05 ± 0.23

Row | Sequence | self-splicing fitness (ln) (30 °C) | self-splicing fitness (ln) (37 °C)
53 | CGGCAGCAAUAUUACGCCCU | -1.01 ± 0.39 | 0.318 ± 0.29
54 | CGGCAGCAAUAUUACGCCUU | -0.474 ± 0.097 | -0.622 ± 0.12
55 | CGGCAGCAAUAUUACGCUGU | -3.8 ± 0.14 | -2.29 ± 0.15
56 | CGGCAGCAAUAUUACGGAUU | -3.9 ± 0.31 | -2.24 ± 0.21
57 | CGGCAGCAAUAUUACGGCGA | -3.18 ± 0.16 | -2.72 ± 0.18
58 | CGGCAGCAAUAUUACGGCUU | -0.457 ± 0.065 | 0.278 ± 0.095
59 | CGGCAGCAAUAUUACGGUUC | -2.16 ± 0.093 | -0.799 ± 0.098
60 | CGGCAGCAAUAUUACGUAAC | -1.24 ± 0.21 | 
61 | CGGCAGCAAUAUUACGUACU | -0.872 ± 0.052 | -0.714 ± 0.06
62 | CGGCAGCAAUAUUACGUUGA | -2.63 ± 0.19 | -1.8 ± 0.16
63 | CGGCAGCAAUAUUACGUUGC | -3.03 ± 0.27 | -2.57 ± 0.33
64 | CGGGAGCAAUAUUACGACCU | -0.87 ± 0.14 | -0.864 ± 0.18
65 | CGGGAGCAAUAUUACGCAGC | -3.21 ± 0.24 | -2.72 ± 0.43
66 | CGGGAGCAAUAUUACGCGCC |  | -1.51 ± 0.43
67 | CGGGAGCAAUAUUACGGAGC | -2.32 ± 0.37 | -0.632 ± 0.25
68 | CGGGAGCAAUAUUACGGCUA | -2.44 ± 0.39 | 
69 | CGGGAGCAAUAUUACGGGAC | -3.57 ± 0.3 | -3.25 ± 0.4
70 | CGGGAGCAAUAUUACGGGCA |  | -1.14 ± 0.42
71 | CGGGAGCAAUAUUACGGGGU | -2.03 ± 0.42 | 
72 | CGGGAGCAAUAUUACGGGUG | -3.26 ± 0.28 | -2.07 ± 0.28
73 | CGGGAGCAAUAUUACGGUAC | -2.19 ± 0.38 | 
74 | CGGGAGCAAUAUUACGGUUU |  | -1.19 ± 0.32
75 | CGGGAGCAAUAUUACGUAAA | -2.94 ± 0.34 | 
76 | CGGGAGCAAUAUUACGUACU |  | -1.86 ± 0.38
77 | CGGGAGCAAUAUUACGUCAU | -3.09 ± 0.49 | 
78 | CGGGAGCAAUAUUACGUCCG | -1.07 ± 0.43 | 

Row | Sequence | self-splicing fitness (ln) (30 °C) | self-splicing fitness (ln) (37 °C)
79 | CGGGAGCAAUAUUACGUUCA | -3.69 ± 0.25 | -2.53 ± 0.26
80 | CGGGAGCAAUAUUACGUUUC | -3.92 ± 0.46 | 
81 | CGGUAGCAAUAUUACGAAGA | -2.99 ± 0.42 | -2.32 ± 0.29
82 | CGGUAGCAAUAUUACGAUUC | -2.84 ± 0.17 | -1.69 ± 0.13
83 | CGGUAGCAAUAUUACGCAGG | -1.26 ± 0.12 | -1.44 ± 0.18
84 | CGGUAGCAAUAUUACGCCAU | -1.58 ± 0.32 | -2.46 ± 0.39
85 | CGGUAGCAAUAUUACGCCCA | 0.153 ± 0.1 | 0.145 ± 0.17
86 | CGGUAGCAAUAUUACGCGCU | -3.13 ± 0.39 | 
87 | CGGUAGCAAUAUUACGCGUU | -3.55 ± 0.31 | -2.13 ± 0.21
88 | CGGUAGCAAUAUUACGCUCG |  | -2.91 ± 0.43
89 | CGGUAGCAAUAUUACGGCCG | -3.76 ± 0.24 | -0.985 ± 0.2
90 | CGGUAGCAAUAUUACGGCUU | -0.935 ± 0.087 | 0.239 ± 0.12
91 | CGGUAGCAAUAUUACGGGCG | -0.838 ± 0.12 | 0.0595 ± 0.14
92 | CGGUAGCAAUAUUACGGGUU | -3.51 ± 0.21 | -3.67 ± 0.22
93 | CGGUAGCAAUAUUACGUAAU | -3.97 ± 0.47 | 
94 | CGGUAGCAAUAUUACGUCGC | -3.35 ± 0.27 | -2.14 ± 0.22
95 | CGGUAGCAAUAUUACGUCUG | -0.631 ± 0.086 | -0.338 ± 0.11
96 | CGGUAGCAAUAUUACGUGAA | -2.67 ± 0.18 | -1.52 ± 0.19
97 | CGGUAGCAAUAUUACGUUCU | -0.482 ± 0.087 | -0.439 ± 0.1
98 | CGGUAGCAAUAUUACGUUGU | -4.62 ± 0.27 | -2.55 ± 0.15
99 | CGGUAGCAAUAUUACGUUUC | -2.48 ± 0.32 | 
100 | CGUAAGCAAUAUUACGAAGU | -3.81 ± 0.18 | -2.51 ± 0.17
101 | CGUAAGCAAUAUUACGACCA | -2.11 ± 0.35 | -0.83 ± 0.25
